In the supplement of paper PMC7877785:
± gives the uncertainty stated by the source.

Experiment: self-splicing fitness, log relative to wild type (ln ratio); higher = more splicing; Tetrahymena group I intron in knt gene, E. coli kanamycin selection, DiMSum; sequences stand for … in CUCUCU…GGAGGGAAAAGUUAUCAGGCAUGCACCUGGUAGCUAGUCUUUAAACCAAUAGAUUGCAUCGGUUUAAAAGGCAAGACCGUCAAAUUGCGGGAAAGGGGUCAACAGCCGUUCAGUACCAAGUCUCAGGGGAAACUUUGAGAUGGCCUUGCAAAGGGUAUGGUAAUAAGCUGACGGACAUGGUCCUAACCACGCAGCCAAGUCCUAAGUCAACAGAUCUUCUGUUGAUAUGGAUGCAGUUCACAGACUAAAUGUCGGUCGGGGAAGAUGUAUUCUUCUCAUAAGAUAUAGUCGGACCUCUCCUUAAUGGGAGCUAGCGGAUGAAGUGAUGCAACACUGGAGCCGCUGGGAACUAAUUUGUAUGCGAAAGUAUAUUGAUUAGUUUUGGAGUACUCGUGGUCG
Outline: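 Pooled colonies went to amplicon sequencing on an Illumina HiSeq 2500 after six replicate transformations. The plates were LB agar with 100 μg/mL carbenicillin, 50 μM IPTG and 0.2% rhamnose, with or without 25 μg/mL kanamycin, incubated overnight at 37°C or 30°C. The E. coli BL21(DE3) library had all eight P1ex-region intron nucleotides randomised, the intron placed in the knt kanamycin-resistance gene on pET-22b(+). DiMSum fitness is the error-weighted combination of replicate fold changes, kanamycin against none, normalised to wild type.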

| Sequence | self-splicing fitness (ln) (30 °C) | self-splicing fitness (ln) (37 °C) |
| --- | --- | --- |
| AAAGAGCAAUAUUACGAGUG | -3.95 ± 0.19 | -2.38 ± 0.16 |
| AUCUAGCAAUAUUACGGUAC | -2.16 ± 0.11 | -2.44 ± 0.14 |
| GGAGAGCAAUAUUACGCAAA | -3.82 ± 0.43 | – |
| CGCUAGCAAUAUUACGCCCU | 0.0689 ± 0.15 | -0.957 ± 0.24 |
| UGAUAGCAAUAUUACGUGUG | -1.45 ± 0.1 | -0.804 ± 0.098 |
| ACUUAGCAAUAUUACGAUAG | -2.71 ± 0.12 | -1.7 ± 0.16 |
| GCUCAGCAAUAUUACGCGAG | -2.78 ± 0.13 | -2.18 ± 0.17 |
| AUAAAGCAAUAUUACGGAUU | -1.15 ± 0.077 | 0.0214 ± 0.091 |
| AUACAGCAAUAUUACGGAGA | -3.81 ± 0.33 | -0.736 ± 0.27 |
| GGAUAGCAAUAUUACGAUAG | -2.63 ± 0.23 | -2.86 ± 0.47 |
| GAUAAGCAAUAUUACGCUGU | -3.45 ± 0.18 | -2.18 ± 0.2 |
| CACUAGCAAUAUUACGCACG | -0.378 ± 0.099 | -0.823 ± 0.089 |
| GAGAAGCAAUAUUACGUCUC | -4.38 ± 0.46 | -2.39 ± 0.24 |
| AUUGAGCAAUAUUACGAAAC | -2.48 ± 0.45 | – |
| GAUAAGCAAUAUUACGCGCG | -0.359 ± 0.096 | 0.119 ± 0.15 |
| GUCUAGCAAUAUUACGUUCU | -0.494 ± 0.098 | -0.247 ± 0.11 |
| AAUCAGCAAUAUUACGUGAC | -1.81 ± 0.085 | -1.72 ± 0.12 |
| UUUAAGCAAUAUUACGGCCC | 0.344 ± 0.32 | – |
| AACCAGCAAUAUUACGGAAC | -2.13 ± 0.091 | -1.04 ± 0.088 |
| ACAUAGCAAUAUUACGGCCA | -0.771 ± 0.12 | -0.572 ± 0.13 |
| AUGCAGCAAUAUUACGAUGA | -1.93 ± 0.16 | -1.04 ± 0.14 |
| GAGCAGCAAUAUUACGCGUU | -3.08 ± 0.12 | -1.32 ± 0.12 |
| UCGUAGCAAUAUUACGUGUA | -2.75 ± 0.12 | -0.347 ± 0.11 |
| CAGAAGCAAUAUUACGCUAC | -0.828 ± 0.41 | – |
| AUGUAGCAAUAUUACGUAAU | -1.21 ± 0.11 | -0.524 ± 0.12 |

| Sequence | self-splicing fitness (ln) (30 °C) | self-splicing fitness (ln) (37 °C) |
| --- | --- | --- |
| GGAAAGCAAUAUUACGCGGG | -2.64 ± 0.18 | -1.5 ± 0.18 |
| CCGCAGCAAUAUUACGUACU | -4.17 ± 0.33 | -3.33 ± 0.4 |
| CCGCAGCAAUAUUACGCCCU | -3.34 ± 0.47 | 0.196 ± 0.3 |
| GGGUAGCAAUAUUACGUUAG | – | -1.78 ± 0.43 |
| UAGGAGCAAUAUUACGCUCG | -1.49 ± 0.21 | 0.196 ± 0.24 |
| AGCUAGCAAUAUUACGUGGG | -4.49 ± 0.2 | -2.72 ± 0.15 |
| GGUCAGCAAUAUUACGUAAG | -1.87 ± 0.15 | -0.22 ± 0.18 |
| CUUAAGCAAUAUUACGACGG | -0.508 ± 0.1 | -0.291 ± 0.13 |
| CCCCAGCAAUAUUACGACGC | -3.17 ± 0.25 | -3.22 ± 0.35 |
| UUGCAGCAAUAUUACGUUAA | -1.55 ± 0.1 | -0.515 ± 0.089 |
| CAUGAGCAAUAUUACGCCAG | -1.94 ± 0.19 | -1.84 ± 0.24 |
| AAAAAGCAAUAUUACGUAUU | -1.92 ± 0.077 | -1.39 ± 0.11 |
| GGAAAGCAAUAUUACGCUCG | -0.352 ± 0.15 | 0.329 ± 0.17 |
| GCCCAGCAAUAUUACGGUGU | -2.51 ± 0.067 | -1.27 ± 0.076 |
| GGCGAGCAAUAUUACGAACC | -2.56 ± 0.071 | -1.11 ± 0.085 |
| AUCCAGCAAUAUUACGUUUU | -2.04 ± 0.083 | -1.15 ± 0.11 |
| GGAAAGCAAUAUUACGCGCC | -3.03 ± 0.49 | -2.17 ± 0.42 |
| UGGCAGCAAUAUUACGGAAA | -1.94 ± 0.16 | -0.318 ± 0.14 |
| UGGCAGCAAUAUUACGAAGU | -3.69 ± 0.37 | -2.62 ± 0.23 |
| UCGGAGCAAUAUUACGACGG | -3.56 ± 0.43 | -1.36 ± 0.29 |
| UGACAGCAAUAUUACGUUGG | -2.08 ± 0.12 | -1.82 ± 0.13 |
| CACUAGCAAUAUUACGCUGC | -3.71 ± 0.32 | -2.76 ± 0.35 |
| CAUCAGCAAUAUUACGAUUG | -1.45 ± 0.054 | -0.782 ± 0.071 |
| AAUCAGCAAUAUUACGUUGU | -2.38 ± 0.1 | -1.68 ± 0.12 |
